Residue numbers refer to the chain shown, from its start.
What was measured:
Assay in all cases: competition ELISA, peptide tracer
[1] = target: T1, cynomolgus monkey IL-2Rβ subunit (cynomolgus monkey)
T1 construct: Bought protein; also called cyno-IL-2Rβ subunit
Procedure: (§1) Binding of Fc fusions to IL-2Rβ and IL-2Rγc were measured using a competition binding ELISA with biotinylated peptide/NeutrAvidin-HRP tracer. ELISA plate was prepared as described in Example 27.
(§2) The plate was washed 4 times with PT (1×PBS, 0.05% Tween® 20) buffer. Fifty (50) μL of IL-2R ligands serially diluted in PBT was added to appropriate wells then incubated at 4° C. for 1 hr.
(§3) At the appropriate time, the precomplexed bn-peptide/NA-HRP tracer was diluted to 2-fold its predetermined binding EC80 (typically 30 to 10 nM) without washing. fifty (50) μL of bn-peptide/NA-HRP tracer was added to each well and incubated at 4° C. for 45 mins.

[2] = target: T2, human IL-2Rγc (CD132 protein, Fc Tag) (23-254) (human, UniProt P31785 23-254)
T2 construct: range 23-254; Bought protein; also called hu-IL-2Rγc subunit; IL-2Rγc subunit; not shown: Fc tag of the bought protein
T2 sequence (looked up): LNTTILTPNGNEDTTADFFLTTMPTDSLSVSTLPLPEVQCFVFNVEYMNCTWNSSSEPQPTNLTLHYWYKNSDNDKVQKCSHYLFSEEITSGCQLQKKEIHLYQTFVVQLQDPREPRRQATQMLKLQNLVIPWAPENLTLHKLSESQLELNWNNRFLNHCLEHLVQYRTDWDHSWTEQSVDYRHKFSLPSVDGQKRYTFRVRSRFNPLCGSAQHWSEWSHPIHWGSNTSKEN
Procedure: as §1, §2, §3

[3] = target: T3, cynomolgus monkey Rγc subunit (cynomolgus monkey)
T3 construct: also called cyno-IL-2Rγc subunit
Procedure: as §1, §2, §3

[4] = target: T4, human IL-2Rβ (CD122 protein, Fc Tag) (27-239) (human, UniProt P14784 27-239)
T4 construct: range 27-239; Bought protein; also called hu-IL-2Rβ subunit; IL-2Rβ subunit; not shown: Fc tag of the bought protein
T4 sequence (looked up): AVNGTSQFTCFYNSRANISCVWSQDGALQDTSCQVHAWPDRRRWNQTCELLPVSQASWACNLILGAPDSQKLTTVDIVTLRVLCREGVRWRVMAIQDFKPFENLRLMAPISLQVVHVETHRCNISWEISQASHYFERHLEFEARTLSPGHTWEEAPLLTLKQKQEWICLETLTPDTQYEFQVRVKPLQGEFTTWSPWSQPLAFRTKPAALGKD
Procedure: as §1, §2, §3

Measured: IC50

T1 sequence (Q38J85 whole entry): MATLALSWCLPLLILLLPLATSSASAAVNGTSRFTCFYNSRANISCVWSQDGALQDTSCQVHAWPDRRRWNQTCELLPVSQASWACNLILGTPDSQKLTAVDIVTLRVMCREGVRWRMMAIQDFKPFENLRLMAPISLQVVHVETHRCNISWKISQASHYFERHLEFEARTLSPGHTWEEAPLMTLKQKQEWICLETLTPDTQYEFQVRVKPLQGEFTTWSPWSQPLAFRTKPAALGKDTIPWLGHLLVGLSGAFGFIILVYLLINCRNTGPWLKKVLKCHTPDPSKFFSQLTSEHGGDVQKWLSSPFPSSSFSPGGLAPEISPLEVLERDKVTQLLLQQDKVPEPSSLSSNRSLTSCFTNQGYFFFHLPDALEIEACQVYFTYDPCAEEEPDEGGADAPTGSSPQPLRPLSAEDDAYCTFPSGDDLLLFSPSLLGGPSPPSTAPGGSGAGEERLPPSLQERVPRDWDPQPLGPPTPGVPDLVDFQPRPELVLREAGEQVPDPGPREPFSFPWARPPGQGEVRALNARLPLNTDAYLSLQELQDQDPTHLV

LVDCFKVKVGELCDLFFGPAPAPAPAPAPAPAPAGVVCQDWEGVELCWQ [SEQ ID NO 4179]
< 100 µM: [1] | [2] | [3] | [4]

B1: SEQ ID NO 4175 (peptide)
peptide: GGRYVHDCFIAQVGDLCDLFLHGGGGSGGGGSGGGGSGGGGSGGVVCQDWEGVELCWQGG
< 100 µM: [1] | [2] | [3] | [4]

WYPCWIARVGELCDLEEGPVNRGGGGGSGGVVCQDWEGVELCWQGG [SEQ ID NO 4172]
< 100 µM: [1] | [2] | [3] | [4]

B2: SEQ ID NO 4177 (peptide)
peptide: GGELLVDCFKVKVGELCDLFFGPAPAPAPAPAPAPAPAPAPAPAVVCQDWEGVELCWQGG
< 100 µM: [1] | [2] | [3] | [4]

B3: SEQ ID NO 4176 (peptide)
peptide: GGRYVHDCFIAQVGDLCDLFLHPAPAPAPAPAPAPAPAGVVCQDWEGVELCWQGG
< 100 µM: [1] | [2] | [3] | [4]

B4: SEQ ID NO 4182 (peptide)
peptide: B3 peptide with D18A
< 100 µM: [1] | [2] | [3] | [4]

B5: SEQ ID NO 4184 (peptide)
peptide: B3 peptide with L16A
< 100 µM: [1] | [2] | [3] | [4]

B6: SEQ ID NO 4185 (peptide)
peptide: B3 peptide with A11G
< 100 µM: [1] | [2] | [3] | [4]

B7: SEQ ID NO 4183 (peptide)
peptide: B3 peptide with V13A
< 100 µM: [1] | [2] | [3] | [4]

B8: SEQ ID NO 4178 (peptide)
peptide: GGELLVDCFKVKVGELCDLFFGPAPAPAPAPAPAPAPAGVVCQDWEGVELCWQGG
< 100 µM: [1] | [2] | [3] | [4]

B9: SEQ ID NO 4181 (peptide)
peptide: B8 peptide with K10R, K12R
< 100 µM: [1] | [2] | [3] | [4]

B10: SEQ ID NO 4173 (peptide)
peptide: GGGELLVDCFKVKVGELCDLFFGGGGGSGGGGSGGVVCQDWEGVELCWQGG
< 100 µM: [1] | [2] | [3] | [4]

B11: SEQ ID NO 4174 (peptide)
peptide: GGGELLVDCFKVKVGELCDLFFGGGGGSGGGGSGGGGSGGVVCQDWEGVELCWQGG
< 100 µM: [1] | [2] | [3] | [4]
